Experimental data from patent US20260242478A1 (published 2026).
Where no end group is shown, it is not given here.

What was measured:
[1] = molecular target: T1, Anti-CD28 Fab (SEQ ID NOs: 696, 697); test: phage ELISA; clonal phage supernatant on biotinylated anti-CD28 Fab captured on neutravidin plate, anti-M13-HRP detection
T1 construct: In the phage ELISA the Fab was biotinylated and captured on neutravidin coated plates
T1 sequence (VH, as listed by the source, chain 1 of 2): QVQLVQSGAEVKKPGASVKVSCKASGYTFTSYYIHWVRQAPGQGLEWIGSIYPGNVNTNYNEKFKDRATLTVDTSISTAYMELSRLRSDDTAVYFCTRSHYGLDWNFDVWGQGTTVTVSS
T1 sequence (VL, as listed by the source, chain 2 of 2): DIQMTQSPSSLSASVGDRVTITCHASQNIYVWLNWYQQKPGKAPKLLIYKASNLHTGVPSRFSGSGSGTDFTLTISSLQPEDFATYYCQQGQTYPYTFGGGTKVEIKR
Procedure: (§1) Clonal phage were harvested as crude supematants and screened via standard ELISAs. […] Prior to the addition of clonal phage, wells were incubated with blocking buffer and CD28 antigen or blocking buffer alone. Without washing or aspirating, clonal phage supematants were then added to the wells and incubated for a short time. Wells were then washed followed by detection of bound phage using a horse radish conjugated anti-M13 antibody.

[2] = molecular target: T1, Anti-CD28 Fab (SEQ ID NOs: 696, 697); test: phage ELISA on plate-bound anti-CD28 Fab pre-incubated with CD28 antigen as competitor
Procedure: as §1

[3] = molecular target: T2, Anti-CD28 Fab (SEQ ID NOs: 696, 697); test: phage binding ELISA on captured anti-CD28 Fab, wells pre-incubated with CD28 antigen as competitor
T2 construct: In the phage ELISA the Fab was biotinylated and captured on neutravidin coated plates
T2 sequence (VH, as listed by the source, chain 1 of 2): as the sequence (VH, as listed by the source, chain 1 of 2) above
T2 sequence (VL, as listed by the source, chain 2 of 2): as the sequence (VL, as listed by the source, chain 2 of 2) above
Procedure: (§2) Clonal phage were harvested as crude supematants and screened via standard ELISAs. […] Prior to the addition of clonal phage, wells were incubated with blocking buffer and CD28 antigen or blocking buffer alone. Without washing or aspirating, clonal phage supematants were then added to the wells and incubated for a short time. Wells were then washed followed by detection of bound phage using a horse radish conjugated anti-M13 antibody. Clonal phage of interest were then sent for sequence analysis.

[4] = molecular target: T2, Anti-CD28 Fab (SEQ ID NOs: 696, 697); test: phage binding ELISA; biotinylated anti-CD28 Fab on neutravidin plate, bound phage detected with anti-M13-HRP;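 note: clonal phage tested as crude supernatants, given a short incubation in the Fab-captured wells before bound phage were read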
Procedure: as §2

PSMA Fab (006 PSMA Fab) [5] = molecular target: T3, PSMA Fab (006 PSMA Fab) (biotinylated for capture on neutravidin plates (site not stated)); test: clonal phage ELISA on captured PSMA Fab pre-incubated with PSMA antigen as competitor, anti-M13-HRP detection;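 note: wells blocked with buffer plus PSMA antigen before phage addition, with blocking buffer alone as the no-competitor control, bound phage detected after washing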
T3 construct: also called Anti-PSMA Fab

PSMA Fab (006 PSMA Fab) [6] = molecular target: T3, PSMA Fab (006 PSMA Fab); test: clonal phage ELISA on biotinylated PSMA Fab captured on neutravidin plates, anti-M13-HRP detection;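 note: crude clonal phage supernatants added to wells preincubated with PSMA antigen or with blocking buffer only (no wash between), briefly incubated, then washed before detecting bound phage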
Procedure: (§3) Clonal phage were harvested as crude supernatants and screened via standard ELISAs. […] Prior to the addition of clonal phage. wells were incubated with blocking buffer and PSMA antigen or blocking buffer alone. Without washing or aspirating, clonal phage supernatants were then added to the wells and incubated for a short time. Wells were then washed followed by detection of bound phage using a horse radish conjugated anti-M13 antibody.

PSMA Fab (006 PSMA Fab) [7] = molecular target: T4, PSMA Fab (006 PSMA Fab); test: phage ELISA; PSMA Fab on plate pre-incubated with PSMA antigen as competitor, anti-M13 HRP detection;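 note: crude clonal phage supernatants added to Fab-coated wells still holding PSMA antigen in blocking buffer, with bound phage as read-out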
T4 construct: In the phage ELISA the PSMA Fab was biotinylated and captured on neutravidin coated plates; also called Anti-PSMA Fab; anti-PSMA Fab
Procedure: as §3

PSMA Fab (006 PSMA Fab) [8] = molecular target: T4, PSMA Fab (006 PSMA Fab); test: phage ELISA; biotinylated PSMA Fab on neutravidin plate, clonal phage supernatant, anti-M13 HRP detection;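 note: wells preincubated with PSMA antigen in blocking buffer or with blocking buffer only before clonal phage were added for a short incubation, then bound phage detected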
Procedure: as §3

Binder | Anti-CD28 Fab signal (phage binding ELISA) [1] | Anti-CD28 Fab signal in the presence of CD28 (phage binding ELISA) [2] | phage binding ELISA signal (Anti-PSMA Fab, PSMA antigen present) (PSMA Fab (006 PSMA Fab) [7]) | Phage binding ELISA signal, Anti-PSMA Fab (PSMA Fab (006 PSMA Fab) [8]) | other results
MCAAGFHYPWPACL (cysteine pairing not given here; also: fused to phage pIII protein) [Phage-1374 peptide (SEQ ID NO: 1670)] | 2.23 | 0.1 | – | – | –
TCAAGANWEWPWCF [Phage-1375 peptide (SEQ ID NO: 1671)] | 2.22 | 0.08 | – | – | –
TCAAGATYAWPYCV [Phage-1376 peptide (SEQ ID NO: 1672)] | 2.21 | 0.09 | – | – | –
TCAAGAAYPWPLCF [Phage-1377 peptide (SEQ ID NO: 1673)] | 2.18 | 0.11 | – | – | –
TCSAGASNKLSLCL [Phage-1378 peptide (SEQ ID NO: 1674)] | 2.18 | 0.06 | – | – | –
MCSAGANWPWPLCF [Phage-1379 peptide (SEQ ID NO: 1675)] | 2.18 | 0.07 | – | – | –
RCSAGFHYPLSLCL [Phage-1380 peptide (SEQ ID NO: 1676)] | 2.18 | 0.06 | – | – | –
NCSAGATYPWPLCL [Phage-1381 peptide (SEQ ID NO: 1677)] | 2.17 | 0.07 | – | – | –
SCAAGAMYSWPTCL [Phage-1382 peptide (SEQ ID NO: 1678)] | 2.16 | 0.08 | – | – | –
NCSAGAQWPWPICL [Phage-1383 peptide (SEQ ID NO: 1679)] | 2.15 | 0.08 | – | – | –
LCAAGAHYPWPQCL [Phage-1384 peptide (SEQ ID NO: 1680)] | 2.15 | 0.07 | – | – | –
TCAAGAHWPWPTCF [Phage-1385 peptide (SEQ ID NO: 1681)] | 2.15 | 0.07 | – | – | –
TCSAGATYTWSKCF [Phage-1386 peptide (SEQ ID NO: 1682)] | 2.15 | 0.06 | – | – | –
LCNAGATYSWPTCL [Phage-1387 peptide (SEQ ID NO: 1683)] | 2.14 | 0.06 | – | – | –
TCSAGATYTWPWCF [Phage-1388 peptide (SEQ ID NO: 1684)] | 2.14 | 0.07 | – | – | –
LCKPGVPNSWPTCL (Tested as clonal phage supernatant; not shown: fused to the pIII filament of the bacteriophage) [Phage-1431 (peptide-92 library clone, SEQ ID NO: 1727)] | – | – | – | – | Anti-CD28 Fab signal in the presence of CD28 (phage binding ELISA) [3]: 0.06; Anti-CD28 Fab signal (phage binding ELISA) [4]: 1.95
TCSAGAHYPWPDCI (Tested as clonal phage supernatant; not shown: fused to the pIII filament of the bacteriophage) [Phage-1432 (peptide-92 library clone, SEQ ID NO: 1728)] | – | – | – | – | Anti-CD28 Fab signal in the presence of CD28 (phage binding ELISA) [3]: 0.07; Anti-CD28 Fab signal (phage binding ELISA) [4]: 1.95
PCAAGAMWPWPVCL (Tested as clonal phage supernatant; not shown: fused to the pIII filament of the bacteriophage) [Phage-1433 (peptide-92 library clone, SEQ ID NO: 1729)] | – | – | – | – | Anti-CD28 Fab signal in the presence of CD28 (phage binding ELISA) [3]: 0.06; Anti-CD28 Fab signal (phage binding ELISA) [4]: 1.95
LCNAGAMYKWPTCL (Tested as clonal phage supernatant; not shown: fused to the pIII filament of the bacteriophage) [Phage-1434 (peptide-92 library clone, SEQ ID NO: 1730)] | – | – | – | – | Anti-CD28 Fab signal in the presence of CD28 (phage binding ELISA) [3]: 0.06; Anti-CD28 Fab signal (phage binding ELISA) [4]: 1.94
MCSAGAMYPWPLCL (Tested as clonal phage supernatant; not shown: fused to the pIII filament of the bacteriophage) [Phage-1435 (peptide-92 library clone, SEQ ID NO: 1731)] | – | – | – | – | Anti-CD28 Fab signal in the presence of CD28 (phage binding ELISA) [3]: 0.07; Anti-CD28 Fab signal (phage binding ELISA) [4]: 1.93
TCSAGAMWTWPYCF (Tested as clonal phage supernatant; not shown: fused to the pIII filament of the bacteriophage) [Phage-1436 (peptide-92 library clone, SEQ ID NO: 1732)] | – | – | – | – | Anti-CD28 Fab signal in the presence of CD28 (phage binding ELISA) [3]: 0.08; Anti-CD28 Fab signal (phage binding ELISA) [4]: 1.93

Binder | Anti-CD28 Fab signal (phage binding ELISA) [1] | Anti-CD28 Fab signal in the presence of CD28 (phage binding ELISA) [2] | phage binding ELISA signal (Anti-PSMA Fab, PSMA antigen present) (PSMA Fab (006 PSMA Fab) [7]) | Phage binding ELISA signal, Anti-PSMA Fab (PSMA Fab (006 PSMA Fab) [8]) | other results
TCAAGAYWTWPACF (Tested as clonal phage supernatant; not shown: fused to the pIII filament of the bacteriophage) [Phage-1437 (peptide-92 library clone, SEQ ID NO: 1733)] | – | – | – | – | Anti-CD28 Fab signal in the presence of CD28 (phage binding ELISA) [3]: 0.09; Anti-CD28 Fab signal (phage binding ELISA) [4]: 1.93
TCSAGAGYPWPLCY (Tested as clonal phage supernatant; not shown: fused to the pIII filament of the bacteriophage) [Phage-1438 (peptide-92 library clone, SEQ ID NO: 1734)] | – | – | – | – | Anti-CD28 Fab signal in the presence of CD28 (phage binding ELISA) [3]: 0.08; Anti-CD28 Fab signal (phage binding ELISA) [4]: 1.92
SCSAGASLQLSICL (Tested as clonal phage supernatant; not shown: fused to the pIII filament of the bacteriophage) [Phage-1439 (peptide-92 library clone, SEQ ID NO: 1735)] | – | – | – | – | Anti-CD28 Fab signal in the presence of CD28 (phage binding ELISA) [3]: 0.06; Anti-CD28 Fab signal (phage binding ELISA) [4]: 1.92
TCSAGATWAWPSCF (Tested as clonal phage supernatant; not shown: fused to the pIII filament of the bacteriophage) [Phage-1440 (peptide-92 library clone, SEQ ID NO: 1736)] | – | – | – | – | Anti-CD28 Fab signal in the presence of CD28 (phage binding ELISA) [3]: 0.1; Anti-CD28 Fab signal (phage binding ELISA) [4]: 1.92
SVHMCKPPWMCQSM [Phage-2818] | – | – | – | – | Phage binding ELISA signal, Anti-PSMA Fab in presence of PSMA (PSMA Fab (006 PSMA Fab) [5]): 0.077; Phage binding ELISA signal, Anti-PSMA Fab (PSMA Fab (006 PSMA Fab) [6]): 0.509
IDKWCKPVWMCADN (cysteine pairing not given here; also: fused to pIII, displayed on bacteriophage) [Phage-2819 (Peptide-180 library clone)] | – | – | 0.0659 | 0.5 | –
FEKWCTPLWMCADS (cysteine pairing not given here; also: fused to pIII, displayed on bacteriophage) [Phage-2820 (Peptide-180 library clone)] | – | – | 0.0612 | 0.5 | –
WDNWCTPSWMCSTA [Phage-2821 (Peptide-180 library clone)] | – | – | 0.0814 | 0.488 | –
DIRWCTPPWMCMHL [Phage-2822 (Peptide-180 library clone)] | – | – | 0.258 | 0.486 | –
GVNWCVPPWMCLND [Phage-2823 (Peptide-180 library clone)] | – | – | 0.0879 | 0.484 | –
GLPWCVPQWMCVVS [Phage-2824 (Peptide-180 library clone)] | – | – | 0.0721 | 0.482 | –
YHKWCTPEWMCVFD [Phage-2825 (Peptide-180 library clone)] | – | – | 0.0666 | 0.474 | –
SSNWCTPAWMCVTS [Phage-2826 (Peptide-180 library clone)] | – | – | 0.0627 | 0.47 | –
LEKWCIPSQLCQLD [Phage-2827 (Peptide-180 library clone)] | – | – | 0.0743 | 0.464 | –
GEKWCSPAWMCEWL [Phage-2828 (Peptide-180 library clone)] | – | – | 0.0817 | 0.459 | –
DVKWCTPRWMCELS [Phage-2829 (Peptide-180 library clone)] | – | – | 0.0913 | 0.457 | –
QAIWCIPDWMCVQN [Phage-2830 (Peptide-180 library clone)] | – | – | 0.137 | 0.454 | –
AFPSCIPEWMCSGM [Phage-2831 (Peptide-180 library clone)] | – | – | 0.149 | 0.45 | –
EFKWCSPAQLCVNG [Phage-2832 (Peptide-180 library clone)] | – | – | 0.0526 | 0.447 | –
EVKWCTPYWMCIDT [Phage-2833 (Peptide-180 library clone)] | – | – | 0.072 | 0.443 | –
NTNWCTPPWMCEGL [Phage-2834 (Peptide-180 library clone)] | – | – | 0.0664 | 0.442 | –
